According to US20230036060A1, “DUAL-CONTROLLED DRUG AND PHOTOACTIVATABLE SYSTEM FOR SPATIOTEMPORAL CONTROL OF CELL THERAPY” (THE REGENTS OF THE UNIVERSITY OF CALIFORNIA, priority 2019, published 2023):

Assays:
[1] = test system: CD38+ Toledo Target cells; experiment: Activation of myc-α-CD38 Receptor Jurkat T cells upon binding to CD38+ Toledo Target cells; format: cell-based; conditions: Jurkat T cells stably expressing the receptor
Text: FIG. 12D graphically illustrates representative histograms from flow cytometry showing that α-CD19-CAR-EGFP^+ Jurkat T cells both (I) bind to and (II) are activated by CD19^+ Toledo Target cells, while myc-α-CD38-Receptor^+ Jurkat T cells (III) bind to but (IV) are not activated by CD38^+ Toledo Target cells;
The TamPA-Cre system was next applied to induce CAR expression in the physiologically relevant Jurkat T cell line. […] Likewise, Jurkat T cells stably expressing myc-α-CD38 Receptor were not activated upon binding to CD38^+ Toledo Target cells, as expected (Fig. S6D).

[2] = test system: EGFP Reporter HEK293T cells; experiment: Cre-loxP recombination in EGFP Reporter HEK293T cells, % EGFP+ by flow cytometry normalized to Cre groups; format: cell-based; conditions: Dark, Ambient, Light (5 W/m^2, 7.5 s per min, 24 h); n=5
Text: FIG. 2A is a schematic representation of the EGFP Reporter genetic construct before and after Cre-loxP recombination; the hEF1α promoter drives mCherry expression.
FIG. 3E graphically illustrates the number of recombined cells after recombination in TamPA-Cre-nH1^+ EGFP Reporter HEK293T cells subjected (Light) or not (Ambient, Dark) to Protocol B (n=3) of FIG. 3C; reporter is untransfected EGFP Reporter HEK293T cell line (n=3), blue light stimulation started and flow cytometry measurements taken 24 h and 72 h post-transfection, respectively; percentage of recombined HEK293T cells (normalized to maximal recombination)=100%*(% of EGFP^+ cells)/(mean % of EGFP^+ cells in corresponding Cre groups). […]
To compare the two photoactivatable split-Cre systems, EGFP Reporter HEK293T cells were or were not (Reporter) transiently transfected with either PA-Cre-C, PA-Cre-M, or Cre constructs (Fig. S1A-D). […] The percentage of EGFP^+ recombined cells in each cell group was determined by flow cytometry 24 h later. […]

B1: myc-α-CD38 Receptor: c-myc-tagged α-CD38 anchoring receptor expressed in Jurkat T cells, SEQ ID NO: 8 (protein)
chain: MEFGLSWLFLVAILKGVQCSEQKLISEEDLDIQLTQSSSSFSVSLGDRVTITCKASEDIYNRLAWYQQKPGNAPRLLISGATSLETGVPSRFSGSGSGKDYTLSITSLQTEDVATYYCQQYWSTPTFGGGTKLEIKRADAAPTVSIFPPSGGGGSGGGGSGGGGSGGGGSQVQLKQSGPSLVQPSQRLSITCTVSGFSLISYGVHWVRQSPGKGLEWLGVIWRGGSTDYNAAFMSRLSITKDNSKSQVFFKMNSLQADDTAIYFCAKTLITTGYAMDYWGQGTSVTVSSAAAIEVMYPPPYLDNEKSNGTIIHVKGKHLCPSPLFPGPSKPFWVLVVVGGVLACYSLLVTVAFIIFWVRSKRS
modifications: Synthetic exemplary nucleic acid sequence for exemplary myc-alpha-CD38-Receptor
- T cell activation upon binding to Target cells [1]: not activated

B2: NLS-pMag-CreC: nucleus-localized C-terminal split-Cre protein half, SEQ ID NO: 1 (protein)
chain: PKKKRKVGGHTLYAPGGYDIMGYLRQIRNRPNPQVELGPVDTSCALILCDLKQKDTPIVYASEAFLYMTGYSNAEVLGRNCRFLQSPDGMVKPKSTRKYVDSNTINTMRKAIDRNAEVQVEVVNFKKNGQRFVNFLTMIPVRDETGEYRYSMGFQCETEGTNRKWFPAEPEDVRDYLLYLQARGLAVKTIQQHLGQLNMLHRRSGLPRPSDSNAVSLVMRRIRKENVDAGERAKQALAFERTDFDQVRSLMENSDRCQDIRNLAFLGIAYNTLLRIAEIARIRVKDISRTDGGRMLIHIGRTKTLVSTAGVEKALSLGVTKLVERWISVSGVADDPNNYLFCRVRKNGVAAPSATSQLSTRALEGIFEATHRLIYGAKDDSGQRYLAWSGHSARVGAARDMARAGVSIPEIMQAGGWTNVNIVMNYIRNLDSETGAMVRLLEDGD
modifications: Synthetic exemplary nucleic acid sequence for NLS-pMag-CreC
- Cre-loxP recombination by one split-Cre half alone versus Reporter [2]: no significant difference
